In patent US20180164286A1 (MEDICAL DIAGNOSTIC LABORATORIES, published 2018):
Where a chain is given by its changes, count along the chain named. Names may count otherwise.

B1: LB-4E-BP1 with T37E, T46E, S65E, and T70E (other)
chain: MVFTLEDFVGDWEQTAAYNLDQVLEQGGVSSLLQNLAVSVTPIQRIVRSGENALKIDIHVIIPYEGLSADQMAQIEEVFKVVYPVDDHHFKVILPYGTLVIDGVTPNMLNYFGRPYEGIAVFDGKKITVTGTLWNGNKIIDERLITPDGSMLFRVTINSGSSGGGGSGGGGSSGMSGGSSCSQTPSRAIPATRRVVLGDGVQLPPGDYSTEPGGTLFSTEPGGTRIIYDRKFLMECRNEPVTKEPPRDLPTIPGVTSPSSDEPPMEASQSHLRNSPEDKRAGGEESQFEMDI
notes: All four mTOR phosphorylation sites changed to glutamate on the LB-4E-BP1 plasmid; The residue numbers count on 4E-BP1 itself; also called T37/46/70E/S65E (all 4 sites mutated); all E
B2: 4E-BP1 with C-terminal LB at residue 75 (other, UniProt Q13541 1-75, looked up, not shown: large carriers)
chain: MSGGSSCSQTPSRAIPATRRVVLGDGVQLPPGDYSTTPGGTLFSTTPGGTRIIYDRKFLMECRNSPVTKTPPRDL
B3: Large BiT (LB)-4E-BP2, full-length (other)
chain: MVFTLEDFVGDWEQTAAYNLDQVLEQGGVSSLLQNLAVSVTPIQRIVRSGENALKIDIHVIIPYEGLSADQMAQIEEVFKVVYPVDDHHFKVILPYGTLVIDGVTPNMLNYFGRPYEGIAVFDGKKITVTGTLWNGNKIIDERLITPDGSMLFRVTINSGSSGGGGSGGGGSSGMSSSAGSGHQPSQSRAIPTRTVAISDAAQLPHDYCTTPGGTLFSTTPGGTRIIYDRKFLLDRRNSPMAQTPPCHLPNIPGVTSPGTLIEDSKVEVNNLNNLNNHDRKHAVGDDAQFEMDI
B4: D55Y LB-4E-BP2 (other)
chain: B3 chain with D229Y
notes: Patient (COSMIC) mutation made in LB-4E-BP2 as a linear expression cassette; The residue number counts on 4E-BP2 itself; also called 4EBP2-D55Y
B5: R62P LB-4E-BP2 (other)
chain: B3 chain with R236P
notes: Patient (COSMIC) mutation made in LB-4E-BP2 as a linear expression cassette; The residue number counts on 4E-BP2 itself; also called 4EBP2-R62P

Key:
[1] = biological target: T1, Small BiT (SB)-eIF4E, full-length; assay: split-luciferase (NanoBiT) luminescence in HEK293 cells
T1 construct: N-terminal Small BiT fusion of full-length eIF4E (cDNA Origene RC207333), expressed intracellularly in HEK293, MCF-7 or HEK293-derived clones; also called Full-length SB-eIF4E; SB-linked eIF4E

[2] = biological target: T1, Small BiT (SB)-eIF4E, full-length; assay: cell-based or functional assay
[3] = biological target: T1, Small BiT (SB)-eIF4E, full-length; assay: split-luciferase luminescence in 3A1 cell line stably expressing SB-eIF4E

Binder	fold-change of split-luciferase luminescence, rapamycin (50 nM, 1 h) over vehicle; HEK293 cells [2]	binding result [3]	other results
B1	–	–	binding result [1]: no binding
B2	0.83 fold	–	–
B3	1.84 fold	–	–
B4	–	no binding	–
B5	–	no binding	–
